Measured values as given in publication PMC12356840, “Structural basis for substrate recognition mechanism of human SLC26A7” (Nature Communications, 2025).

Molecular target: the molecule itself
Assay: cryo-EM structure; purified SLC26A7 in 25 mM Tris pH 8.0, 150 mM NaCl, 0.02% GDN, 5-10 mg/ml; apo sample and sample with 20 mM sodium iodide; dimer model obtained by C2 symmetry

B1: human SLC26A7 (solute carrier family 26 member 7) (natural protein, UniProt Q8TE54 1-656, looked up)
chain: MTGAKRKKKSMLWSKMHTPQCEDIIQWCRRRLPILDWAPHYNLKENLLPDTVSGIMLAVQQVTQGLAFAVLSSVHPVFGLYGSLFPAIIYAIFGMGHHVATGTFALTSLISANAVERIVPQNMQNLTTQSNTSVLGLSDFEMQRIHVAAAVSFLGGVIQVAMFVLQLGSATFVVTEPVISAMTTGAATHVVTSQVKYLLGMKMPYISGPLGFFYIYAYVFENIKSVRLEALLLSLLSIVVLVLVKELNEQFKRKIKVVLPVDLVLIIAASFACYCTNMENTYGLEVVGHIPQGIPSPRAPPMNILSAVITEAFGVALVGYVASLALAQGSAKKFKYSIDDNQEFLAHGLSNIVSSFFFCIPSAAAMGRTAGLYSTGAKTQVACLISCIFVLIVIYAIGPLLYWLPMCVLASIIVVGLKGMLIQFRDLKKYWNVDKIDWGIWVSTYVFTICFAANVGLLFGVVCTIAIVIGRFPRAMTVSIKNMKEMEFKVKTEMDSETLQQVKIISINNPLVFLNAKKFYTDLMNMIQKENACNQPLDDISKCEQNTLLNSLSNGNCNEEASQSCPNEKCYLILDCSGFTFFDYSGVSMLVEVYMDCKGRSVDVLLAHCTASLIKAMTYYGNLDSEKPIFFESVSAAISHIHSNKNLSKLSDHSEV
notes: full-length wild-type human SLC26A7 (also known as SUT2), UniProt Q8TE54; Homodimer (domain-swapped) in the cryo-EM structures; both were used to capture the protein on the way to the structure; The iodide-loaded sample had 20 mM sodium iodide throughout the purification; also called SUT2; SLC26A7_apo
stoichiometry N: 2
